Changes are numbered by the printed parent chain. Numbers in names are those of the source.
B1: NADPH-dependent thioredoxin reductase C (NTRC), endogenous in wild-type Arabidopsis leaves (enzyme, UniProt O22229 68-529, looked up)
chain: ATANSPSSSSSGGEIIENVVIIGSGPAGYTAAIYAARANLKPVVFEGYQMGGVPGGQLMTTTEVENFPGFPDGITGPDLMEKMRKQAERWGAELYPEDVESLSVTTAPFTVQTSERKVKCHSIIYATGATARRLRLPREEEFWSRGISACAICDGASPLFKGQVLAVVGGGDTATEEALYLTKYARHVHLLVRRDQLRASKAMQDRVINNPNITVHYNTETVDVLSNTKGQMSGILLRRLDTGEETELEAKGLFYGIGHSPNSQLLEGQVELDSSGYVLVREGTSNTSVEGVFAAGDVQDHEWRQAVTAAGSGCIAALSAERYLTSNNLLVEFHQPQTEEAKKEFTQRDVQEKFDITLTKHKGQYALRKLYHESPRVILVLYTSPTCGPCRTLKPILNKVVDEYNHDVHFVEIDIEEDQEIAEAAGIMGTPCVQFFKNKEMLRTISGVKMKKEYREFIEANK
notes: NTRC of Arabidopsis thaliana (At2g41680), mature chloroplast protein without the putative transit peptide of 67 amino acids (ChloroP); calculated mass of mature NTRC 50890 Da, band of about 50 kDa; printed residue numbers count on the precursor with the transit peptide; The cleavage site of the transit peptide is only a ChloroP prediction (67 amino acids); also called plastid-localized …
B2: full-length NTRC with C217S/C220S in the NTRd active site (OE-SAIS) (enzyme, Arabidopsis thaliana, UniProt O22229 68-529, looked up)
chain: B1 chain with C150S, C153S
notes: signal peptide in the construct (chloroplast transit peptide, putative 67 amino acids, ChloroP); full-length NTRC of Arabidopsis thaliana (At2g41680) with both redox cysteines of the NTRd motif CAIC changed to serine; in the leaf extract it runs as the mature protein of about 50 kDa; source: transgenic Arabidopsis (ntrc knockout background, CaMV 35S promoter, pGWR8), soluble leaf extract
B3: full-length NTRC with C454S/C457S in the TRXd active site (OE-SGPS) (enzyme, Arabidopsis thaliana, UniProt O22229 68-529, looked up)
chain: B1 chain with C387S, C390S
notes: signal peptide in the construct (chloroplast transit peptide, putative 67 amino acids, ChloroP); full-length NTRC of Arabidopsis thaliana (At2g41680) with both redox cysteines of the TRXd motif CGPC changed to serine; in the leaf extract it runs as the mature protein of about 50 kDa; also called NTRC-SGPS; source: transgenic Arabidopsis (ntrc knockout background, CaMV 35S promoter, pGWR8), …

Target: the molecule itself
Assay: SDS-PAGE of unheated samples with Western blot; soluble leaf proteins extracted in 50 mM HEPES, 5 mM NaCl, 10 mM MgCl2 with or without 2 mM DTT; solubilised in SDS buffer with or without mercaptoethanol and kept on ice (0°C), not heated; 10% acrylamide gel; blot with anti-NTRC or anti-NTRB antibody

| Protein | stoichiometry N |
| --- | --- |
| B1 | 2 |
| B2 | 2 |
| B3 | 2 |

From PMC3792407, “Overexpression of chloroplast NADPH-dependent thioredoxin reductase in Arabidopsis enhances leaf growth and elucidates in vivo function of reductase and thioredoxin domains” (Frontiers in Plant Science, 2013)
